Assay results published in patent US20090291083A1, “BARB4 TARGET, ANTIBODY DESIGNATED BARB4, BARB4 RELATED ANTIBODIES, AND METHODS OF MAKING AND USING SAME” (PATRYS LIMITED, priority 2008, published 2009).

Key:
Assay in all cases: FACS analysis of tumor cell binding
Details in all cases: 20 min on ice
[1] = test system: malignant melanoma cells (CRL-1424)
Protocol: (§1) To analyze tumor cell binding, pancreas cancer cells (BXPC-3), stomach cancer cells (23132/87), lung carcinoma cells (A549) and malignant melanoma cells (HTB-69 and CRL-1424) were grown to subconfluency in complete medium, detached with Trypsin/EDTA and incubated on ice for 1 h for recreation. Tumor cells were subsequently incubated on ice with BARB4 antibody (diluted in PBS containing 0.01% sodium azide), or human isotype-matched control antibody (Chrompure human IgG, Dianova, Hamburg, Germany) for 20 min on ice. Following incubation, cells were incubated with a FITC-labeled rabbit anti-human IgG antibody (1:50, Dako, Germany) for 20 min on ice, and cells were analyzed by flow cytometry (FACScan; Becton Dickinson, USA).

[2] = test system: malignant melanoma cells (HTB-69)
Protocol: as §1

[3] = test system: stomach cancer cells (23132/87)
Protocol: as §1

Measured: tumor cell binding (FACS)

B1: BARB4: human IgG antibody produced by hybridoma DSMZ Deposit No. DSM ACC2876; heavy chain SEQ ID NOs:1, 3, 5, 7, light chain SEQ ID NO:9 (antibody, V domains shown)
VH: QVQLVESGGGVVQPGRSLRLSCAASGFRFTTHGMHWVRQAPGKGLEWVAVISYNGRNKYYADYVNGRFTISRDDSRDTVFLQMNSLRPEDTAMYYCAKVRGDGYGDYGYFDYWGHGTLVSVSS
VL: QSALTQPRSVSGSPGQSVTISCTGTYNYVSWYQQHPGKAPKLMIFDVSRRSSGVPDRFSGSKSGNTASLTISGLQAEDEADYYCCSYGGTYLYVFGTGTTVTVLGQ
binds: all assays above
